Test results published in publication PMC8142927, “Destabilization of EpCAM dimer is associated with increased susceptibility towards cleavage by TACE” (PeerJ, 2021).
Substitutions are numbered along the chain they refer to. Numbers in names are those of the source.

Biological target: the molecule itself
Assay: SEC-MALS; SEC with right- and low-angle laser light scattering detectors (SEC-RALLS/LALLS, OMNISEC), Superdex 200 Increase 10/300 GL, 150 μg of protein injected per run, 25 °C, 0.5 ml/min, 20 mM HEPES, pH 7.5, 100 mM NaCl; dimer to monomers

B1: EpEX (EpCAM extracellular part, residues 24-265, with mutated N-glycosylation sites N74Q, N111Q and N198Q) (domain or fragment, human)
chain: QEECVCENYKLAVNCFVNNNRQCQCTSVGAQNTVICSKLAAKCLVMKAEMQGSKLGRRAKPEGALQNNDGLYDPDCDESGLFKAKQCQGTSMCWCVNTAGVRRTDKDTEITCSERVRTYWIIIELKHKAREKPYDSKSLRTALQKEITTRYQLDPKFITSILYENNVITIDLVQQSSQKTQNDVDIADVAYYFEKDVKGESLFHSKKMDLTVNGEQLDLDPGQTLIYYVDEKAPEFSMQGLKLE
notes: Epithelial cell adhesion molecule (EpCAM, CD326), human, extracellular part EpEX, residues 24-265, N-glycosylation sites mutated; residues translated from the XhoI scar, between K265 and the His6-tag; in solution it is a dimer in equilibrium with a small amount of monomer; also called wild type-like EpEX; non-glycosylated EpEX variant; source: Sf9 insect cells (baculovirus), culture supernatant, …
stoichiometry N: 2

B2: EpEX L264C (domain or fragment, human)
chain: B1 chain with L241C
modifications: disulfide bond between the introduced cysteine residues (C264) of the two subunits
notes: residues translated from the XhoI scar, between K265 and the His6-tag; Derived from m1; the protein is a constitutive dimer of two subunits linked by a disulfide; PDB 4mzv is the parent EpEX; also called disulfide-stabilized dimeric form; covalently stabilized EpEX dimer; source: Sf9 insect cells (baculovirus), culture supernatant, purified (His-tag column, ion exchange, SEC); not shown: His6, …
stoichiometry N: 2
